± gives the standard error. For some assays here: Variants at the floor of the assay were thinned out.
B1: glmS ribozyme (parent)
chain: AUAAAAGCGCCAGAACUACAGAAAUGUAGUUGACGAGGAGGAGGUUUAUCGAAUUUUCGGCGGAUGCCUCCAAA

How the values were obtained:
Conditions in all cases: with glucosamine-6-phosphate
glucosamine-6-phosphate [1] = variants of: B1; assay: kcat; higher = faster cleavage; RNA array
Summary of the method: (§1)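 Barcoded ribozyme variants were transcribed in situ on sequenced MiSeq chips by E. coli RNA polymerase. At 37 °C, a hybridised Cy3 probe tracked them while glucosamine-6-phosphate (40 μM to 10 mM) in HEPES/KCl/Mg(OAc)2 buffer flowed in and tiles were imaged over ~14 h. Per-tile medians of signals normalised to baseline and to non-cleaving reference variants were fit to one- or two-exponential decays, giving kobs. kcat and KM came from weighted Michaelis–Menten fits across concentrations.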

glucosamine-6-phosphate [2] = variants of: B1; assay: self-cleavage kobs at 160 uM GlcN6P; higher = faster cleavage; RNA array
Summary of the method: as §1

glucosamine-6-phosphate [3] = variants of: B1; assay: self-cleavage kobs at 10000 uM GlcN6P; higher = faster cleavage; RNA array
Summary of the method: as §1

glucosamine-6-phosphate [4] = variants of: B1; assay: KM; higher = weaker cofactor use; RNA array
Summary of the method: as §1

glucosamine-6-phosphate [5] = variants of: B1; assay: self-cleavage kobs at 40 uM GlcN6P; higher = faster cleavage; RNA array
Summary of the method: as §1

glucosamine-6-phosphate [6] = variants of: B1; assay: self-cleavage kobs at 640 uM GlcN6P; higher = faster cleavage; RNA array
Summary of the method: as §1

glucosamine-6-phosphate [7] = variants of: B1; assay: self-cleavage kobs at 2500 uM GlcN6P; higher = faster cleavage; RNA array
Summary of the method: as §1

Variant | kcat (glucosamine-6-phosphate [1]) [s⁻¹] | self-cleavage kobs at 160 uM GlcN6P (glucosamine-6-phosphate [2]) [s⁻¹] | self-cleavage kobs at 10000 uM GlcN6P (glucosamine-6-phosphate [3]) [s⁻¹] | KM (glucosamine-6-phosphate [4]) [µM] | self-cleavage kobs at 40 uM GlcN6P (glucosamine-6-phosphate [5]) [s⁻¹] | self-cleavage kobs at 640 uM GlcN6P (glucosamine-6-phosphate [6]) [s⁻¹] | self-cleavage kobs at 2500 uM GlcN6P (glucosamine-6-phosphate [7]) [s⁻¹]
A12C C50A C68G | 2.56e-05 ± 8.7e-06 |  |  |  |  |  | 
G35A G43C | < 1e-05 | < 1e-05 | < 1e-05 |  |  |  | 
A12U C58U | 7.97e-05 ± 5.4e-06 |  | 7.81e-05 ± 1.1e-05 | 662 ± 220 | < 1e-05 | 4.45e-05 ± 1.4e-05 | 5.86e-05 ± 9.3e-06
U47C C68U | 0.00114 ± 0.0002 | 0.000149 ± 3.6e-05 | 0.00107 ± 0.00015 | 1650 ± 540 | 3.33e-05 ± 1.2e-05 | 0.000286 ± 4.6e-05 | 0.000609 ± 0.0001
U49G C71G | 7.69e-05 ± 4.8e-06 |  | 7.21e-05 ± 9.4e-06 | 427 ± 120 |  | 4.8e-05 ± 8.8e-06 | 6.83e-05 ± 1.3e-05
C50A G60C | 1.48e-05 ± 7e-06 |  |  |  |  |  | 
C16U G40U | 0.00189 ± 0.00089 | 0.000209 ± 5e-05 | 0.00317 ± 0.0006 |  | 0.000134 ± 2e-05 | 0.00095 ± 0.00016 | 0.00106 ± 0.00024
G62A | < 1e-05 |  | < 1e-05 |  | < 1e-05 |  | 
U47C C70U | 0.00786 ± 0.0023 | 0.000483 ± 0.00014 | 0.00635 ± 0.0016 | 2070 ± 790 | 0.000179 ± 2.6e-05 | 0.00151 ± 0.00028 | 0.00519 ± 0.00095
G66A C70U | 0.0162 ± 0.0065 | 0.00153 ± 0.00021 | 0.0185 ± 0.0034 |  | 0.00075 ± 0.0001 | 0.00577 ± 0.00081 | 0.00738 ± 0.0024
A12U U56C | 0.0355 ± 0.014 | 0.00159 ± 0.00028 | 0.0251 ± 0.0075 | 2940 ± 1400 | 0.000487 ± 0.00011 | 0.00808 ± 0.0013 | 
U46C A53U U65G | 0.000127 ± 3.1e-05 |  | 7.63e-05 ± 2.5e-05 | 6880 ± 2800 |  |  | 3.28e-05 ± 1.2e-05
G44U A53C | 0.000114 ± 1.6e-05 |  | 9.5e-05 ± 1.6e-05 | 1360 ± 610 |  |  | 8.9e-05 ± 1.7e-05
U56C G66U | 0.000242 ± 4e-05 |  | 0.000231 ± 3.4e-05 | 1500 ± 650 |  | 8.87e-05 ± 2e-05 | 0.000133 ± 2e-05
G40A U55C A64G | 4.82e-05 ± 7.4e-06 |  |  | 7420 ± 2400 |  |  | 
C16U U56G C68G | 5.74e-05 ± 1.5e-05 |  | 6.1e-05 ± 1.3e-05 |  |  | 9.61e-05 ± 2.8e-05 | 
A15C C16U A53G U55A C68G | 3.32e-05 ± 6.7e-06 | 3.89e-05 ± 1.8e-05 |  |  |  |  | 3.96e-05 ± 1.4e-05
C16G A48G | < 1e-05 |  |  |  | < 1e-05 |  | 

Variant | kcat (glucosamine-6-phosphate [1]) [s⁻¹] | self-cleavage kobs at 160 uM GlcN6P (glucosamine-6-phosphate [2]) [s⁻¹] | self-cleavage kobs at 10000 uM GlcN6P (glucosamine-6-phosphate [3]) [s⁻¹] | KM (glucosamine-6-phosphate [4]) [µM] | self-cleavage kobs at 40 uM GlcN6P (glucosamine-6-phosphate [5]) [s⁻¹] | self-cleavage kobs at 640 uM GlcN6P (glucosamine-6-phosphate [6]) [s⁻¹] | self-cleavage kobs at 2500 uM GlcN6P (glucosamine-6-phosphate [7]) [s⁻¹]
G32A C58A | 0.00126 ± 0.00024 | 7.42e-05 ± 1.4e-05 | 0.00106 ± 0.00016 | 3330 ± 920 |  | 0.000201 ± 2.2e-05 | 0.000498 ± 5.6e-05
C11U C70G C71U | 5.18e-05 ± 1e-05 |  | 5.18e-05 ± 1.3e-05 |  |  | 7.99e-05 ± 2.7e-05 | 
A42U U69C C71U | 0.00168 ± 0.0003 |  | 0.00136 ± 0.00028 | 700 ± 210 | 8.14e-05 ± 1.7e-05 | 0.000956 ± 0.00016 | 0.00156 ± 0.00038
A6U G51A C71A | 5.19e-05 ± 1.7e-05 |  |  |  |  |  | 
C67A C71A | 0.000401 ± 8.3e-05 |  | 0.000361 ± 4.3e-05 |  | 4.21e-05 ± 1.2e-05 | 0.00013 ± 4.6e-05 | 0.000277 ± 4.8e-05
A42C U55A | 1.17e-05 ± 4.9e-06 |  |  |  |  |  | 
A42G U69G | 0.000182 ± 2.9e-05 |  | 0.000202 ± 4.3e-05 |  | 5.35e-05 ± 2.1e-05 | 0.000119 ± 4.1e-05 | 
C16U C67G C68U | 6.15e-05 ± 1.2e-05 |  | 5.02e-05 ± 1.9e-05 |  |  | 7.27e-05 ± 2.2e-05 | 6.31e-05 ± 2.8e-05
A53G C68G | 0.000144 ± 2.6e-05 | 5.82e-05 ± 1e-05 |  |  |  | 8.52e-05 ± 9.4e-06 | 0.00014 ± 1.5e-05
A14U C16A | 0.000551 ± 6.3e-05 | 5.14e-05 ± 1.1e-05 | 0.000451 ± 5.1e-05 | 1840 ± 400 |  | 0.000126 ± 1.9e-05 | 0.000363 ± 4.8e-05
U56C C68G | < 1e-05 | < 1e-05 | < 1e-05 |  |  |  | 
A12U C67G | 0.00362 ± 0.00062 | 0.000542 ± 0.00011 | 0.00426 ± 0.00054 | 791 ± 210 | 0.00019 ± 2.1e-05 | 0.0015 ± 0.00029 | 0.00226 ± 0.00035
G37A C71G | 0.000188 ± 2.3e-05 | 3.34e-05 ± 1.4e-05 | 0.000155 ± 1.4e-05 | 2370 ± 690 |  | 4.08e-05 ± 7.8e-06 | 9.24e-05 ± 9.5e-06
G13C C58A | 0.000354 ± 6.9e-05 |  | 0.000203 ± 1.3e-05 | 7610 ± 2700 |  | 4.16e-05 ± 9.2e-06 | 8e-05 ± 9.7e-06
A6C C50G | 2.11e-05 ± 7.4e-06 |  |  |  |  |  | 
C68G C70A | < 1e-05 |  | < 1e-05 |  | < 1e-05 |  | 
G13U A14G C61U C70G | 1.9e-05 ± 5.3e-06 |  |  |  |  |  | 
